Laboratory results published in patent EP1516629B1 (Genentech, Inc., dated 2013).
Values joined by “and” are separate entries in the source; they are usually repeats but may differ in a detail not shown here. Identical values can stand only once. Like-named read-outs stand apart in the source and are kept apart here. Blank lines part the entries; values can stand above or below the binder they belong to.

Legend:
[1] = target: T1, rhesus CD11a (rhesus, UniProt H9Z8N3 26-1169); assay: cell-based or functional assay
T1 sequence: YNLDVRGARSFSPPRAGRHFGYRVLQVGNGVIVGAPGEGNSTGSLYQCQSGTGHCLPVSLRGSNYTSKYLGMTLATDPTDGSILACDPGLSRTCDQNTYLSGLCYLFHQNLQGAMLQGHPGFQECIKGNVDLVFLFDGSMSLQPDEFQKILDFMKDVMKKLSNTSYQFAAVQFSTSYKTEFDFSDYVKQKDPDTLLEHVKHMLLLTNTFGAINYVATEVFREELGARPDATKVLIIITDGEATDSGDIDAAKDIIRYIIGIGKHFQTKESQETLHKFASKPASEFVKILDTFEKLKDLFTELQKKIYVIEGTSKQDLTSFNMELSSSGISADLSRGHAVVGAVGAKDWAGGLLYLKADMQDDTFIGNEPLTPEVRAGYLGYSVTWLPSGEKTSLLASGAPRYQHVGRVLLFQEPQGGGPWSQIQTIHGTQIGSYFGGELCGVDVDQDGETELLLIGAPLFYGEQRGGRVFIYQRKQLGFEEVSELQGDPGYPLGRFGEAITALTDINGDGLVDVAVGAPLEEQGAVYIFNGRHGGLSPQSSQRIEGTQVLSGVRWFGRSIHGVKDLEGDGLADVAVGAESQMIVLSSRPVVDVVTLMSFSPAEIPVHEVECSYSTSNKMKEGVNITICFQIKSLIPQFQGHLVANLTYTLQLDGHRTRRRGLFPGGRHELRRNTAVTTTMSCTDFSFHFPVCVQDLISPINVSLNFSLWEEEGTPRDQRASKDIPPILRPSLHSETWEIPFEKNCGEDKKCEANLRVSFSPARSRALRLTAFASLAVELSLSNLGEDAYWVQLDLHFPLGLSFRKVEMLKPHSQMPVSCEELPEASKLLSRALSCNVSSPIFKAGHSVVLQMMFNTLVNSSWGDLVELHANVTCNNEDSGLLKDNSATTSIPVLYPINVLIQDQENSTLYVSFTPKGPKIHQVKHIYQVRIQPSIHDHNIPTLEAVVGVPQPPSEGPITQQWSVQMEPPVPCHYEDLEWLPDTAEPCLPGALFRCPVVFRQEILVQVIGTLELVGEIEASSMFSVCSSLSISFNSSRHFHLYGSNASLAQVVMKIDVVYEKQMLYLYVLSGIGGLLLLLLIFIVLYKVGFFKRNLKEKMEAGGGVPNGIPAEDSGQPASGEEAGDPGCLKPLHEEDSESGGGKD

[2] = target: T2, rhesus-human chimeric CD11a (Rh/HuCD11a) (human (I-domain mutated to rhesus), UniProt P20701 26-1170); assay: cell-based or functional assay
T2 sequence (looked up): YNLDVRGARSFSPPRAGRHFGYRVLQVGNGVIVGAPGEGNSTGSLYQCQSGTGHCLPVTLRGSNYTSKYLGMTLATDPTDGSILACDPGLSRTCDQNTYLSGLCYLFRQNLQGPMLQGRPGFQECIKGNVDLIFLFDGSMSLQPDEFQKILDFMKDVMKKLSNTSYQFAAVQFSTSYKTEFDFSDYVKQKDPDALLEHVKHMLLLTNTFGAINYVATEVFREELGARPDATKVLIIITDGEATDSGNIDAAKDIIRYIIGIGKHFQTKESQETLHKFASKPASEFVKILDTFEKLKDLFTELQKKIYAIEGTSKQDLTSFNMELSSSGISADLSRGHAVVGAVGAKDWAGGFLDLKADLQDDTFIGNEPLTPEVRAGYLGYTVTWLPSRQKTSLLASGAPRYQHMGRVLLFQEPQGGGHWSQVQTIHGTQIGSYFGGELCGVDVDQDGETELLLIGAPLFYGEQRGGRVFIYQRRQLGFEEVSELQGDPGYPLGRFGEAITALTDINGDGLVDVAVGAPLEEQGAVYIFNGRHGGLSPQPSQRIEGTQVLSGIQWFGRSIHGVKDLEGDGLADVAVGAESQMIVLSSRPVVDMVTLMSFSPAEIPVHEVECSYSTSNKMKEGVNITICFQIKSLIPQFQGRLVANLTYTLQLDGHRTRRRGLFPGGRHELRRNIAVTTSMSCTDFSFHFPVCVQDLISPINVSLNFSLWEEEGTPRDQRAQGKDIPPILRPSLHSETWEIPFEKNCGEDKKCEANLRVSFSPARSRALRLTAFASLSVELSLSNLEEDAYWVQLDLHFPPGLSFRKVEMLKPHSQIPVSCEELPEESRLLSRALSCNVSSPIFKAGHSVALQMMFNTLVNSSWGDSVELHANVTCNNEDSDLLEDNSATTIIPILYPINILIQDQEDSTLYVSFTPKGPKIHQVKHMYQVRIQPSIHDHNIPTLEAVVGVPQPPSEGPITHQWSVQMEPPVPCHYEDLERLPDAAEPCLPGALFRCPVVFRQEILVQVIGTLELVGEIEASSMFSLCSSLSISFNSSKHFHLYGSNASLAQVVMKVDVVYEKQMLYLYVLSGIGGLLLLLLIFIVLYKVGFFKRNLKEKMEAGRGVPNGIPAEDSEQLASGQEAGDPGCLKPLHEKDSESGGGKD

[3] = target: T1, rhesus CD11a; assay: saturation binding, rhesus leukocytes, donor 3, with 1 mg/ml human IgG1, Kd(app)
[4] = target: T1, rhesus CD11a; assay: binding to rhesus peripheral blood lymphocytes
[5] = target: T1, rhesus CD11a; assay: cell-based or functional assay; remark: listed apart in the source
[6] = target: T2, rhesus-human chimeric CD11a (Rh/HuCD11a); assay: cell-based or functional assay; remark: listed apart in the source
[7] = target: T1, rhesus CD11a; assay: cell binding EC50 on rhesus CD11a against HuIgG1 on human CD11a
[8] = target: T1, rhesus CD11a; assay: binding to rhesus peripheral blood lymphocytes; remark: listed apart in the source
[9] = target: T1, rhesus CD11a; assay: cell-based or functional assay; remark: listed apart in the source
[10] = target: T1, rhesus CD11a; assay: saturation binding, rhesus leukocytes, donor 1, Kd(app)
[11] = target: T1, rhesus CD11a; assay: saturation binding, Kd(app)
[12] = target: T3, human CD11a (human, UniProt P20701 26-1170); assay: FACScan, Jurkat cells
T3 construct: whole, on cells; On cells it stands paired with CD18 as LFA-1; also called alpha subunit of LFA-1; LFA-1 (CD11a/CD18)

[13] = target: T3, human CD11a; assay: FACScan, Jurkat cells; remark: listed apart in the source
[14] = target: T3, human CD11a; assay: saturation binding, human lymphocytes, donor 2, Kd(app)
[15] = target: T1, rhesus CD11a; assay: cell binding EC50, rhesus against human CD11a
[16] = target: T3, human CD11a; assay: cell-based or functional assay
[17] = target: T3, human CD11a; assay: saturation binding of 125I-antibody to human mononuclear cells, Kd(app)
[18] = target: T3, human CD11a; assay: saturation binding, human lymphocytes, donor 1, Kd(app)

B4: H2C11 variant IgG1 (antibody, V domains shown)
VH: EVQLVESGGGLVQPGGSLRLSCAASGYSFTGHWMNWVRQAPGKGLEWVGMIAPASSNTRYNQKFKDRFTISVDKSKNTLYLQMNSLRAEDTAVYYCARGIYFYGTTYFDYWGQGTLVTVSS
VL: DIQMTQSPSSLSASVGDRVTITCRASKTISKYLAWYQQKPGKAPKLLIYSGSTLQSGVPSRFSGSGSGTDFTLTISSLQPEDFATYYCQQHNEYPLTFGQGTKVEIK
notes: HuIgG1 variant, human IgG1
Var.EC50/HuIgG1 EC50 [4]: 0.002 ratio
fold weaker than the EC50 of HuIgG1 for human CD11a [7]: 3 to 5 fold
EC50 [8]: 0.11 nM
fold improvement over the EC50 of HuIgG1 for rhesus CD11a [8]: 240 to 415 fold

B6: chimeric MHM24 IgG1 (chIgG1) (antibody, V domains shown)
VH: EVQLQQPGAELMRPGASVKLSCKASGYSFTGHWMNWVRQRPGQGLEWIGMIHPSDSETRLNQKFKDKATLTVDKSSSSAYMQLSSPTSEDSAVYYCARGIYFYGTTYFDYWGQGTTLTVSS
VL: DVQITQSPSYLAASPGETISINCRASKTISKYLAWYQEKPGKTNKLLIYSGSTLQSGIPSRFSGSGSGTDFTLTISSLEPEDFAMYYCQQHNEYPLTFGTGTKLELKR
notes: Murine VL and VH fused to human constant light and heavy (IgG1) chains; also called chimeric IgG1; chlgG1
EC50 F(ab)/EC50 F(ab)-2 [12]: 0.006 ratio
EC50 [13]: 0.0052 µg/mL
IC50, blocking of cell adhesion, Jurkat:HuK [16]: 0.1 nM

B8: humanized MHM24 F(ab)-2 (Fab, V domains shown)
VH: EVQLVESGGGLVQPGGSLRLSCAASGFSFTGHWMNWVRQAPGKGLEWVGMIHPSDSETRYNQKFKDRFTISVDNSKNTLYLQMNSLRAEDTAVYYCARGIYFYGTTYFDYWGQGTLVTVSS
VL: DIQMTQSPSSLSASVGDRVTITCRASKTISKYLAWYQQKPGKAPKLLIYSGSSLESGVPSRFSGSGSGTDFTLTISSLQPEDFATYYCQQHNEYPLTFGQGTKVEIK
notes: F(ab) from E. coli
EC50 [12]: 0.771 µg/mL
EC50 F(ab)/EC50 F(ab)-2 [12]: 1 ratio
fold weaker EC50 than chimeric IgG1 [13]: 148 fold

The next lines start with the values.

fold less efficacious than MHM23, rhesus lymphocytes to human keratinocytes [1]: 74 fold
fold less efficacious than MHM23, rhesus lymphocytes to recombinant human ICAM-1 [1]: 4 fold
fold down from MHM23, Rh/HuCD11a-293 cells to human keratinocytes [2]: 4 fold
Kd [3]: 2.8 nM and 2.7 nM
Var.EC50/HuIgG1 EC50 [4]: 0.004 ratio
IC50, blocking of cell adhesion, RhLy:HuICAM [5]: 5.3 nM
IC50, blocking of cell adhesion, RhLy:HuK [5]: 119 nM
IC50, blocking of cell adhesion, Rh/HuCD11a:HuK [6]: 4.9 nM
fold weaker than the EC50 of HuIgG1 for human CD11a [7]: 3 to 5 fold
EC50 [8]: 0.19 nM
fold improvement over the EC50 of HuIgG1 for rhesus CD11a [8]: 240 to 415 fold
IC50, rhesus mixed lymphocyte response assay [9]: 23.4 nM
Kd [10]: 3.9 nM
fold down in Kd from HuIgG1 for human CD11a [11]: ~26 fold
B1: rhesus-binding MHM24 (RhIgG1), variant H2C12 (antibody, V domains shown)
VH: EVQLVESGGGLVQPGGSLRLSCAASGYSFTGHWMNWVRQAPGKGLEWVGMIAPASSSTRYNQKFKDRFTISVDKSKNTLYLQMNSLRAEDTAVYYCARGIYFYGTTYFDYWGQGTLVTVSS
VL: DIQMTQSPSSLSASVGDRVTITCRASKTISKYLAWYQQKPGKAPKLLIYSGSTLQSGVPSRFSGSGSGTDFTLTISSLQPEDFATYYCQQHNEYPLTFGQGTKVEIKR
notes: Human IgG1; also called H2C l2; H2Cl2

EC50 F(ab)/EC50 F(ab)-2 [12]: 0.004 ratio
fold improvement in binding over F(ab)-6 [13]: 3 fold
B2: humanized MHM24 F(ab)-7 (Fab, V domains shown)
VH: EVQLVESGGGLVQPGGSLRLSCAASGYSFTGHWMNWVRQAPGKGLEWVGMIHPSDSETRYNQKFKDRFTISVDKSSSTLYLQMNSLRAEDTAVYYCARGIYFYGTTYFDYWGQGTLVTVSS
VL: DIQMTQSPSSLSASVGDRVTITCRASKTISKYLAWYQQKPGKAPKLLIYSGSTLQSGVPSRFSGSGSGTDFTLTISSLQPEDFATYYCQQHNEYPLTFGQGTKVEIK

EC50 F(ab)/EC50 F(ab)-2 [12]: 0.012 ratio
fold improvement in binding over F(ab)-5 [13]: 4 fold
B3: humanized MHM24 F(ab)-6 (Fab, V domains shown)
VH: EVQLVESGGGLVQPGGSLRLSCAASGFSFTGHWMNWVRQAPGKGLEWVGMIHPSDSETRYNQKFKDRFTISVDKSSSTLYLQMNSLRAEDTAVYYCARGIYFYGTTYFDYWGQGTLVTVSS
VL: DIQMTQSPSSLSASVGDRVTITCRASKTISKYLAWYQQKPGKAPKLLIYSGSTLQSGVPSRFSGSGSGTDFTLTISSLQPEDFATYYCQQHNEYPLTFGQGTKVEIK

Kd [14]: 0.13 nM
fold reduction in binding against human CD11a [15]: ~1000 fold
IC50, blocking of cell adhesion, Jurkat:HuK [16]: 0.09 nM
Kd [17]: 0.15 nM
Kd [18]: 0.16 nM
B5: murine MHM24 (antibody, V domains shown)
VH: EVQLQQPGAELMRPGASVKLSCKASGYSFTGHWMNWVRQRPGQGLEWIGMIHPSDSETRLNQKFKDKATLTVDKSSSSAYMQLSSPTSEDSAVYYCARGIYFYGTTYFDYWGQGTTLTVSS
VL: DVQITQSPSYLAASPGETISINCRASKTISKYLAWYQEKPGKTNKLLIYSGSTLQSGIPSRFSGSGSGTDFTLTISSLEPEDFAMYYCQQHNEYPLTFGTGTKLELKR
notes: Murine monoclonal antibody; also called muMHM24; murMHM24

binding result [12]: no binding
B7: humanized MHM24 F(ab)-1 (Fab, V domains shown)
VH: EVQLVESGGGLVQPGGSLRLSCAASGFSFTGHWMNWVRQAPGKGLEWVGMIHPSDSETRYADSVKGRFTISVDNSKNTLYLQMNSLRAEDTAVYYCARGIYFYGTTYFDYWGQGTLVTVSS
VL: DIQMTQSPSSLSASVGDRVTITCRASKTISKYLAWYQQKPGKAPKLLIYSGSSLESGVPSRFSGSGSGTDFTLTISSLQPEDFATYYCQQHNEYPLTFGQGTKVEIK
notes: F(ab) from E. coli (VH-CH1 and kappa light chain)
